Target: Tau (2N4R Tau; Tau(291–391)) 2-441 (UniProt P10636)
Experiment: solid-phase ELISA, immobilised fragment, soluble Tau
Conditions: reference: unmodified (WT) Tau(291–391)

Tau (2N4R Tau; Tau(291–391)) 291-391 (from UniProt P10636-8) pS305 Tau(291–391)
binding against the reference (sites S305): weaker

Tau (2N4R Tau; Tau(291–391)) 291-391 (from UniProt P10636-8) pS352 Tau(291–391)
binding against the reference (sites S352): weaker

Tau (2N4R Tau; Tau(291–391)) 291-391 (from UniProt P10636-8) pS356 Tau(291–391)
binding against the reference (sites S356): weaker

From paper PMC10979912
